The results in this text go back to publication PMC4886647, “Transcriptional Regulation of the Outer Membrane Porin Gene ompW Reveals its Physiological Role during the Transition from the Aerobic to the Anaerobic Lifestyle of Escherichia coli”.

In one data set the target is His6-CRP (Escherichia coli, UniProt P0ACJ8 1-210). The data set can be described thus: EMSA; 0.2 mM cAMP; EMSA: 20 mM Tris-HCl pH 8.0, 50 mM NaCl, 1 mM EDTA, 1 mM beta-mercaptoethanol, 10% glycerol, 37 C 30 min; 6% polyacrylamide gel in ice bath; 0.2 mM cAMP for CRP. To be noted: protein: recombinant; tags: His6 (pET28a); chain copies: 2; blunt. (In general: Mobility shift assays separate free from complexed probe on a gel.)

Another data set concerns the target His6-FNR D154A (Escherichia coli, UniProt P0A9E5 1-250, D154A). Briefly: EMSA; two retarded bands; EMSA: 20 mM Tris-HCl pH 8.0, 50 mM NaCl, 1 mM EDTA, 1 mM beta-mercaptoethanol, 10% glycerol, 37 C 30 min; 6% polyacrylamide gel in ice bath; 0.2 mM cAMP for CRP. To be noted: protein: recombinant; tags: His6 (pET28a); chain copies: 2; blunt.

B1: PompW -120 to -3 native (dsDNA)
DNA 1: CATTAACCAGGATTCTCAATGCAACTTCTAAATTAATCCAGATCAATAAAGGGTGAATTATCATATGTAATGTGATCTATGTAGGATCATTTGTTACTCCAATGTAGGTATATTCGTC
DNA 2: GACGAATATACCTACATTGGAGTAACAAATGATCCTACATAGATCACATTACATATGATAATTCACCCTTTATTGATCTGGATTAATTTAGAAGTTGCATTGAGAATCCTGGTTAATG
Take B1: in the data set with His6-CRP, the binding result is given as “binds”.

B2: PompW -167 to -36 native (dsDNA)
DNA 1: GAGTTAATATTTGCGTAGCGAAAATATTTAAAAATTGATTTAAATCACATTAACCAGGATTCTCAATGCAACTTCTAAATTAATCCAGATCAATAAAGGGTGAATTATCATATGTAATGTGATCTATGTAGG
DNA 2: CCTACATAGATCACATTACATATGATAATTCACCCTTTATTGATCTGGATTAATTTAGAAGTTGCATTGAGAATCCTGGTTAATGTGATTTAAATCAATTTTTAAATATTTTCGCTACGCAAATATTAACTC
B2: the binding result with His6-FNR D154A was “binds”.

B3: PompW m-42.5 (dsDNA)
DNA 1: CATTAACCAGGATTCTCAATGCAACTTCTAAATTAATCCAGATCAATAAAGGGTGAATTATCATATGTAATCTATGTAGGATCATTTGTTACTCCAATGTAGGTATATTCGTC
DNA 2: GACGAATATACCTACATTGGAGTAACAAATGATCCTACATAGATTACATATGATAATTCACCCTTTATTGATCTGGATTAATTTAGAAGTTGCATTGAGAATCCTGGTTAATG
Regarding B3, in the data set with His6-CRP, the binding result was “no binding”.
